Assay results published in US20200247893A1 (CITY OF HOPE, published 2020).

Key:
[1] = biological target: T1, recombinant human IL1RAP protein (human, UniProt Q9NPH3 21-359, limits assumed); assay: ELISA: recombinant IL1RAP protein coated at 1 ug/ml, purified IgG in three-fold serial dilution, HRP-anti-human FC detection, OD450
T1 construct: also called recombinant IL1RAP protein; Interleukin-1 receptor accessory protein

[2] = biological target: T1, recombinant human IL1RAP protein; assay: SPR, Biacore T100
[3] = biological target: T1, recombinant human IL1RAP protein; assay: method not given
[4] = biological target: T1, recombinant human IL1RAP protein; assay: ELISA; 1 µg/ml recombinant IL1RAP coated; antibody in three-fold dilutions from 1 µg/ml; HRP-anti-human FC detection
Experimental: Purified antibodies in three-fold serial dilution starting from 1 μg/ml are added to each well. HRP-anti-human FC antibody is used as detection antibody.

[5] = biological target: T2, CD3 on T cells (Homo sapiens (Human), UniProt P07766 23-207; P04234 22-171; P09693 23-182; P20963 22-164); assay: flow cytometry: T cells incubated with 1D5 in place of the bispecific antibody, then his-tagged recombinant IL1RAP, detection with FITC-anti-his antibody
T2 construct: also called T cell co-receptor CD3
T2 sequence (P07766 23-207 limits assumed, chain 1 of 4): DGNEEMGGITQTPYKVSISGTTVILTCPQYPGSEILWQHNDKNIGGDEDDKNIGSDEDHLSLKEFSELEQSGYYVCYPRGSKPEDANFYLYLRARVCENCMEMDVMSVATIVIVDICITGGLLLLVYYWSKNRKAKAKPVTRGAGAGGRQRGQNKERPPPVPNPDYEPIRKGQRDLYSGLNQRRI
T2 sequence (P04234 22-171 limits assumed, chain 2 of 4): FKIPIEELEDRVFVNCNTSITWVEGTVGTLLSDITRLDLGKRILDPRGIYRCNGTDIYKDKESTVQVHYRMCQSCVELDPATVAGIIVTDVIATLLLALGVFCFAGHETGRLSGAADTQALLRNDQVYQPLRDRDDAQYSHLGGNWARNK
T2 sequence (P09693 23-182 limits assumed, chain 3 of 4): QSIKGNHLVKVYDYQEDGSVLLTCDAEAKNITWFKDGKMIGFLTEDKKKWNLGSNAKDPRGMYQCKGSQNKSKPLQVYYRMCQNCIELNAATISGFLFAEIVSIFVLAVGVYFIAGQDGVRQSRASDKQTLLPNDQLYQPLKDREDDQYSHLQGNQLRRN
T2 sequence (P20963 22-164 limits assumed, chain 4 of 4): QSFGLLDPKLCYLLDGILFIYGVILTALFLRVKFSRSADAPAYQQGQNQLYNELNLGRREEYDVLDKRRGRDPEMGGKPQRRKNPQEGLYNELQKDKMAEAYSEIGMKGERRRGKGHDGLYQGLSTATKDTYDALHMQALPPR

T1 sequence (Q9NPH3 21-359 limits assumed): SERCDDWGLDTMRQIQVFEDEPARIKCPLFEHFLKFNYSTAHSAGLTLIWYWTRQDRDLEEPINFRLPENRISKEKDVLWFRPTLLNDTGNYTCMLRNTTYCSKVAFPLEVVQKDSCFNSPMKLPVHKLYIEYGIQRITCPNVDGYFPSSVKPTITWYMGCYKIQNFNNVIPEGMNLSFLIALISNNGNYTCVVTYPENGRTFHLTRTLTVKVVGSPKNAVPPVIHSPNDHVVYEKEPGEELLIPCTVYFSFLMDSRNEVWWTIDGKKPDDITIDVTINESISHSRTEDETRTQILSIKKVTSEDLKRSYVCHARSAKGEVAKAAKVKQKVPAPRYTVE

B1: 2E12 (antibody, V domains shown)
VH: GGGLVQPGGSLRLSCEASGFTFSRYWMHWVRQAPGKGLVWVSRIHTDGSSISYADSVKGRFTISRDNAKNTLYLQMNSLRAEDTAVYYCARDIGGGYSYGSVDYWGQGTLVTVSS
VL: QPVLTQSPSVSVAPGKTTRITCGGDNIGSKSVHWFQQKPGQAPVLVVFGGGDRPSGIPERFSGSNSGNTATLIISGVEGGDEADYYCQVWDGSTDHYIFGAGTMVTVL
Which “EC50 (read off the curve)” value [1] does the source give for B1 here?
The value was ~0.09 µg/mL.

B2: D1A4 (antibody, V domains shown)
VH: PGPLVQSGAEVKKPGASVKVSCTTSGFPFNMYGFNWVRQAPGQGLEWMGWISAYNGRTNYAQKFQGRVTMTTDTSTSTSYVELESLTSDDTAVYYCARSGKQQLGSAQPLDSWGQGTLIIVSS
VL: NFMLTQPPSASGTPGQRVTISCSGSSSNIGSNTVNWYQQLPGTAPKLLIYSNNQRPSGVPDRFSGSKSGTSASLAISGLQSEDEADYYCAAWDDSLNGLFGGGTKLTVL
For B2, which “EC50 (read off the curve)” value [1] is on record?
Its value is ~0.1 µg/mL.

B3: human monoclonal antibody 1D5 (anti-IL1RAP) (antibody, V domains shown)
VH: QVQLVQSGAEVKKPGESLKISCKGSGYSFSSHWIGWVRQMPGKGLEWMGIIYPGDSDTRYSPSFQGQVTISADKSISTAYLQWSSLKASDTAMYYCARGELPGEAYYFDNWGQGTLVTVSS
VL: not shown
notes: also called clone ID5
B3 was tested. Which Kd [2] did it give?
Its Kd is 21.2 nM.

And the Kd [3]?
The Kd was ~20 nM.

What about the EC50 [4] of the same binder?
The EC50 was 0.0049 µg/mL.

Does B3 bind [5]?
Result: no binding
